Laboratory results reported in patent US20240190958A1, “NOVEL ANTIBODY DRUG CONJUGATES WITH NOVEL NAPI2B ANTIBODIES, THERAPEUTIC METHODS AND USES THEREOF” (Tubulis GmbH, priority 2022, published 2024).

Target: recombinant human FcγRIIa/CD32 R131 (Lumit binding immunoassay) (human) (UniProt P12318)
Experiment: Lumit FcγRIIa (CD32) (R131) Binding Immunoassay (Promega), competition with Tracer-LgBiT for FcγR-SmBiT, luminescence, n=1; right panel

recombinant human FcγRIIa/CD32 R131 (Lumit binding immunoassay) (human), sequence (P12318 34-217 H167R limits assumed): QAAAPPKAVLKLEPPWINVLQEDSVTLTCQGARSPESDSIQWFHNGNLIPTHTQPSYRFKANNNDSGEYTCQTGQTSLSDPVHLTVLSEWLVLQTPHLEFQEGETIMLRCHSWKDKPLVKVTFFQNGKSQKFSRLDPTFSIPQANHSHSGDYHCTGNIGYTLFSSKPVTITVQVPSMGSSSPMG

IC50 (read off the curve): 3 µg/mL
Substance: IgG1 positive control (standard of the Lumit FcγR Binding Immunoassays) (antibody)
